Legend:
[1] = target: T1, huNectin4-C1C2-V5 (C1C2 construct, lacking the Ig-like V domain) (human, UniProt Q96NY8 148-510); assay: flow cytometry on Nectin4-C1C2-V5 sorted cells
T1 construct: Expressed on CHO cells; also called Hu-Nectin4 IgC1C2-V5; Nectin4-C1C2-V5 sorted cells
T1 sequence: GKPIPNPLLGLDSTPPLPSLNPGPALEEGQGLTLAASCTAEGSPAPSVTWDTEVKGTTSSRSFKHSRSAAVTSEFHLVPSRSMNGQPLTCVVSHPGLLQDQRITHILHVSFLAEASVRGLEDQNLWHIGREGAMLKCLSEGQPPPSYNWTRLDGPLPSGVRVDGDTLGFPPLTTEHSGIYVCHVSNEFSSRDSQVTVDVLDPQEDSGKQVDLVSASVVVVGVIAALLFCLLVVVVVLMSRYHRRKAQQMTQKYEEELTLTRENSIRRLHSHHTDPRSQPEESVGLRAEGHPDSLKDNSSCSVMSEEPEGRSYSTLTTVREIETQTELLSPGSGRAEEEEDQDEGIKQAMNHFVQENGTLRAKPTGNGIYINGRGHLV

human PVR on CHO cells = target: T2, human PVR on CHO cells (human, UniProt P15151 28-417); assay: flow cytometry on CHO cells expressing human PVR
T2 construct: also called PVR (Nectin-5)
T2 sequence: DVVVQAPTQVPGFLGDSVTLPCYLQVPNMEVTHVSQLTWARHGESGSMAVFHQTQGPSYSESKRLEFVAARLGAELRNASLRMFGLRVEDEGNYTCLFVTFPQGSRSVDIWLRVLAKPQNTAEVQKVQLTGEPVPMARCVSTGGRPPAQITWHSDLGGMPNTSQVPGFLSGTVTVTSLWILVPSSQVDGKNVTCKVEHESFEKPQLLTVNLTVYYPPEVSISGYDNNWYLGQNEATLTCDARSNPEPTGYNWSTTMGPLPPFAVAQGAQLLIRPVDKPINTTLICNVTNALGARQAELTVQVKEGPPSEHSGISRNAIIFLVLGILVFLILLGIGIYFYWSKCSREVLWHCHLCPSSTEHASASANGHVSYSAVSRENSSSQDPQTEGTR
Description: (§1) Anti-Nectin-4 antibodies were tested by flow cytometry for binding to different CHO cell lines made to express respectively the human Nectin 1, Nectin 2, Nectin 3 and PVR proteins. The expression of each cell lines was controlled and validated with known respectively the anti-human Nectin1, anti-human Nectin2, anti-human Nectin3 and anti-human PVR antibodies. The mature amino acid sequence of the proteins expressed by the cells were as follows:
(§2) Nectin 1, Nectin 2, Nectin 3 and PVR proteins as in Example 12. […] Epitope mapping was carried out by assessing competition for binding to Nectin-4 by SPR as in Example 14.

[2] = target: T3, wild-type human Nectin-4 on the CHO huNectin4 Cl.3C8 cell line (human, UniProt Q96NY8 32-510); assay: flow cytometry on wild-type human Nectin-4 cell line
T3 construct: also called whole Nectin-4 protein; huNectin4 CI.3C8
T3 sequence: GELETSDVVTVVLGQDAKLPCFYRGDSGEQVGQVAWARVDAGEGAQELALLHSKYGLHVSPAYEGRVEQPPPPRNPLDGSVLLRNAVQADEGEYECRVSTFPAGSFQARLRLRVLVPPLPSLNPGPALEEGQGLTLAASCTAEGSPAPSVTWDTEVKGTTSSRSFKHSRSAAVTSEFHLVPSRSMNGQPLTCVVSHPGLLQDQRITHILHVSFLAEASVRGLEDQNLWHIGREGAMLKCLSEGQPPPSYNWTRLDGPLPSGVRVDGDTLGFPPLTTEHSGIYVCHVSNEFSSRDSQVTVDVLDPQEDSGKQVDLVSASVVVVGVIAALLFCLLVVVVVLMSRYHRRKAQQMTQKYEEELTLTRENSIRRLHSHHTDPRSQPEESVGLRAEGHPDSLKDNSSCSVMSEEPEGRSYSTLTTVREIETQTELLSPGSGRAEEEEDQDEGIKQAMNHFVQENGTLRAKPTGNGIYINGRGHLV

[3] = target: T4, human Nectin 1 on CHO cells (human, UniProt Q15223 31-517); assay: flow cytometry on CHO cells expressing human Nectin 1
T4 sequence: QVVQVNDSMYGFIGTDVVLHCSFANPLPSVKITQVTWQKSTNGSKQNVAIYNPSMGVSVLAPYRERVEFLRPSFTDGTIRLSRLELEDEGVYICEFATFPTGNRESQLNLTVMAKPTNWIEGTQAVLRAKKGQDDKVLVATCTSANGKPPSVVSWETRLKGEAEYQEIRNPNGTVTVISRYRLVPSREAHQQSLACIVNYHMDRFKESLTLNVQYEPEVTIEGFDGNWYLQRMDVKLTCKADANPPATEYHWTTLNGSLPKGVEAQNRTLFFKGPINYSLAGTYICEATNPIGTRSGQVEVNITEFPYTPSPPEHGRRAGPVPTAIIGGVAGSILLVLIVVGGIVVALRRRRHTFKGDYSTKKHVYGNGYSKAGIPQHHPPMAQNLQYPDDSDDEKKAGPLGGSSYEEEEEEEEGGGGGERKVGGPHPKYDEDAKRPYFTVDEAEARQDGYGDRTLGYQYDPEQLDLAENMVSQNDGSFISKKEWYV
Description: as §1, §2

[4] = target: T5, human Nectin 2 on CHO cells (human, UniProt Q92692 32-538); assay: flow cytometry on CHO cells expressing human Nectin 2
T5 sequence: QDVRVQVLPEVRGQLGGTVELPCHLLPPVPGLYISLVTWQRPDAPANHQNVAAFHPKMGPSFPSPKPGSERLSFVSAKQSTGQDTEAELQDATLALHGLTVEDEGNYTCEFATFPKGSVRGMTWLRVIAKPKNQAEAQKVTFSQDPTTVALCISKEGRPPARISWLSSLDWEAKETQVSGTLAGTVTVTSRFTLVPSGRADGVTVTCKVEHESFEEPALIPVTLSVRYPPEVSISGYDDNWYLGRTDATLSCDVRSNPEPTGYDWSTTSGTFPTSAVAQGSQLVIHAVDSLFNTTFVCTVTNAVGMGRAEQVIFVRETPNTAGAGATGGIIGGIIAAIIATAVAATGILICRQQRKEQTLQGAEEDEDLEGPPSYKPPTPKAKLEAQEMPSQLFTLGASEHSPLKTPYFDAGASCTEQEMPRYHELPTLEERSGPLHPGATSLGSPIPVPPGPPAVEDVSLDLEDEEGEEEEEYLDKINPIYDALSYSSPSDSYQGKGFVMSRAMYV
Description: as §1, §2

human Nectin-4 Mutant 3 = target: T6, human Nectin-4 Mutant 3 (human, UniProt Q96NY8 32-510); assay: binding to HEK-293T cells transfected with the Nectin-4 mutant
T6 construct: Expressed on transfected HEK-293T cells; also called A76S/Q77R/E78A/S91N
T6 chain: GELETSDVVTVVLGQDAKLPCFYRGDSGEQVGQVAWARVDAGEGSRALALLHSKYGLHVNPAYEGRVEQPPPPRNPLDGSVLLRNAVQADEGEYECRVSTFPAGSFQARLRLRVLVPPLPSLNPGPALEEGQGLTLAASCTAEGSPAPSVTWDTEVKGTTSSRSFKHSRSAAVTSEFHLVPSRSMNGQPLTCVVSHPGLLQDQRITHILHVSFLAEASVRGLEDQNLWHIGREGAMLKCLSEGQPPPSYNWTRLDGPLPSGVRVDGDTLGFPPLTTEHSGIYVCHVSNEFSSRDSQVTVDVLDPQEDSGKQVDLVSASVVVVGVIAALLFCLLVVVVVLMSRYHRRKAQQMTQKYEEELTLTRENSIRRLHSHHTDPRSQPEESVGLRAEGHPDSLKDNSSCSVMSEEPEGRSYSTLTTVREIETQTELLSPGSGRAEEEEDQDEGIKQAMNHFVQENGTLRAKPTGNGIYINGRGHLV

[5] = target: T1, huNectin4-C1C2-V5 (C1C2 construct, …); assay: flow cytometry on huNectin4-C1C2-V5 CHO cells
Description: The characterization of the binding of the antibodies on Nectin-4 domains was performed by flow cytometry using cells made to express the wild-type human Nectin-4 protein and cells made to express a modified Nectin-4 having the Ig-like C₂ type 1 and the Ig-like C₂ type 2 domains and lacking the Ig-like V domain (the C1C2 construct). The latter protein additionally bears a V5 tag for flow cytometry cell sorting, and cells were used as Nectin4-C1C2-V5 sorted cells.

human Nectin-4 Mutant 1 = target: T7, human Nectin-4 Mutant 1 (human, UniProt Q96NY8 32-510); assay: binding to HEK-293T cells transfected with the Nectin-4 mutant
T7 construct: Expressed on transfected HEK-293T cells; also called S58P/G59D/Q61A/N106D/P107A
T7 chain: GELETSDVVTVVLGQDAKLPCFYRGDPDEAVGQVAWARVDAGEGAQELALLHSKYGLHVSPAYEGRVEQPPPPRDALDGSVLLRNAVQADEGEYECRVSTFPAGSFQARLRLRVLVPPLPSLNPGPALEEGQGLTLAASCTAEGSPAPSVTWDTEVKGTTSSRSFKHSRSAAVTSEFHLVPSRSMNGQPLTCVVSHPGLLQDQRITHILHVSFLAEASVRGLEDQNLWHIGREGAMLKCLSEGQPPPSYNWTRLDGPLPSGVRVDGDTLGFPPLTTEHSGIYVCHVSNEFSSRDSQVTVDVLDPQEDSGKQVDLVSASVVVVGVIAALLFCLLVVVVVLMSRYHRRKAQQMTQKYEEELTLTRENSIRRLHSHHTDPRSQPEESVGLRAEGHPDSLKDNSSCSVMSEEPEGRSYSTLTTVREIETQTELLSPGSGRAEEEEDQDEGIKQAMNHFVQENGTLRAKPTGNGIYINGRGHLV

[6] = target: T8, monomeric huNectin4-his-BirA protein (human, UniProt Q96NY8 32-349); assay: SPR (Biacore T200), antibody captured on Protein A, monomeric huNectin4-his-BirA injected
T8 construct: also called Human Nectin4-His-BirA; huNectin4-BirA
T8 sequence: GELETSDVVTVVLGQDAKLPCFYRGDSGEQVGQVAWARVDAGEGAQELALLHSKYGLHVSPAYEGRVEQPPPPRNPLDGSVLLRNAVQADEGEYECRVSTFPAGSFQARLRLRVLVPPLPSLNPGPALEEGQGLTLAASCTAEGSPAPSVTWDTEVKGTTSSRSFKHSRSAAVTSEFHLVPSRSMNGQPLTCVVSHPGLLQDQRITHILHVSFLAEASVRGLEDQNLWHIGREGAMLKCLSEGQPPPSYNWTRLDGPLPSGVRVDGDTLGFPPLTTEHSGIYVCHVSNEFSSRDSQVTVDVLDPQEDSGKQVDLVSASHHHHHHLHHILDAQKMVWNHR
Description: Antibodies were tested for binding affinity to the wild-type human Nectin-4 protein by SPR (Surface Plasmon Resonance) methods. Measurements were performed on a Biacore T200 apparatus (Biacore GE Healthcare) at 25° C. Sensorgrams were analyzed with Biacore T100 Evaluation software. A CMR Sensor Chip with immobilized Protein A at about 600 RU was used. Anti-Nectin-4 antibodies were captured onto the Protein-A chip (antibodies diluted to 1 μg/ml in HBS-EP+1× buffer and injected over 120s at 40 μL/min). […] The chip was regenerated with NaOh 10 mM 2× for 30s at 40 μl/min. The sensorgram sets were fitted using the 1:1 kinetic binding model or two state reaction model, as a function of the profile of the curves.

| Binder | binding result [1] | binding result (human PVR on CHO cells) | binding result [2] | binding result [3] | binding result [4] | binding result (human Nectin-4 Mutant 3) | binding result [5] | binding result (human Nectin-4 Mutant 1) | Kd [6] [nM] | koff [6] [s⁻¹] | kon [6] [M⁻¹ s⁻¹] |
| --- | --- | --- | --- | --- | --- | --- | --- | --- | --- | --- | --- |
| antibody 6C11B (antibody, human IgG1, V domains shown, also called 6CB11; CHG1-M-4N4-6C11B) VH: EVQLQQSGPELVKPGASVKISCKTSGYTFTEYTIHWVKQNHGKSLEWIGRINPKNGDIIHNQNFMGKATLTVDKSSSTAYMELRSLTSEDSAVCYCARSGYGSSYGFAYWGQGTLVTVSA VL: DIVMTQSPTSLVVSLGQRATISCRASQSVTTPRYSYMHWYQQKPGQPPKLLIKYASNLESGVPARFSGSGSGTDFTLNIHPVEEEDTATYYCQHSWEIPYTFGGGTKLEIK | binds | no binding | binds | no binding | no binding | no binding | – | – | – | – | – |
| antibody N41 (antibody, V domains shown, Comparator anti-Nectin-4 antibody) VH: QVQLKQSGPGLVQPSQSLSITCTVSGFSLTNYGVHWVRQSPGKGLEWLGVIWSGGSTDYNAAFISRLSISKDTSKSQVFFKMNSLQADDTAIYYCARELIHAMDNWGQGTSVTVSS VL: DIQMTQSPASLSVSVGETVTITCRASENIYSNLAWYQQKQGNSPQLLVFAATNLADGVPSRFSGSGSGTQYSLKINSLQSEDFGTYYCQHFWGTPTFGGGTKLEIK | – | – | – | – | – | – | no binding | no binding | 1.5 | 0.00087 | 580000 |

Source: US20240325557A1 (INNATE PHARMA, published 2024)
